Assay [1] concerns the target T1, human VEGF121-His (human, UniProt P15692 207-395).
T1 construct: Captured by an anti-His antibody on the chip; not shown: His tag
T1 sequence: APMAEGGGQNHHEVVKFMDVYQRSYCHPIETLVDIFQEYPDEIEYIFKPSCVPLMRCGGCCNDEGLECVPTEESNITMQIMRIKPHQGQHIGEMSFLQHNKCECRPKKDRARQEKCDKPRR
The experiment in a line: SPR, VEGF121-His captured via anti-His antibody on C1 chip, Fab as analyte, single cycle kinetics. The procedure: (§1) An anti-His capturing antibody (GE Healthcare 28995056) was immobilized to a Series S Sensor Chip C1 (GE Healthcare 29104990) using standard amine coupling chemistry resulting in a surface densitiy of approximately 500 resonance units (RU). As running and dilution buffer, HBS-P+ (10 mM HEPES, 150 mM NaCl pH 7.4, 0.05% Surfactant P20) was used. […] The surface was regenerated by injecting 10 mM Glycine pH 1.5 for 60s. […] Curve fitting was performed using the 1:1 Langmuir binding model within the Biacore evaluation software. To provide more robust fitting, the Multiple Rmax option was chosen for global fitting using both ligand densities.
A general note: SPR reads the build-up and loss of mass on a sensor chip optically.

The target of assay [2] is T1, human VEGF121-His. The assay is described as above. The procedure:
as §1
The source holds these as a separate data set.

Assay [3] deals with T2, human PDGF-BB (human).
T2 construct: The ELISA text names human PDGF-BB of Cell Signaling, Cat. No 8921BF
T2 chain: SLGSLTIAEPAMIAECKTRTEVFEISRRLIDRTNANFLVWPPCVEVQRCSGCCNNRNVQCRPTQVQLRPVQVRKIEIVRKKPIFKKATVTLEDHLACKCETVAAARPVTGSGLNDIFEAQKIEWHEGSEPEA
The experiment in a line: SPR, Fab fragment; assay format for PDGF not described.

Assay [4] concerns the target T2, human PDGF-BB. Described as above.
For assay [5], the target named is T3, cynomolgus PDGF (cynomolgus).
T3 construct: Printed only as cynomolgus PDGF
The assay is described as above.

The target of assay [6] is T4, rabbit PDGF (rabbit).
T4 construct: Printed only as rabbit PDGF
The assay is described as above.

The target in assay [7] is T5, minipig PDGF (minipig).
T5 construct: Printed only as minipig PDGF; also called Minpig PDGF
T5 sequence (P20034 whole entry, looked up): SLGSPAVAEPAVIAE
The description is as above.

Assay [8] concerns the target T2, human PDGF-BB. Described as above.

We go through six molecules from patent US20230105324A1 (Hoffmann-La Roche, published 2023).

Where a chain is given by its changes, count along the chain named. Read-outs that look alike come from different tables or passages of the source.

Usually Kd stands for the free concentration of one partner at which half of the binding sites on the other are occupied at equilibrium, for simple one-to-one binding. A lower Kd goes with a tighter complex. For orientation: koff means the first-order rate constant of dissociation. A lower koff goes with a long-lived complex. One may read the kon as the second-order rate constant of association. High values mean faster complex formation, low ones slower complex formation. The t½ is how long it takes for the measured level to halve.

B1: bispecific anti-VEGF/anti-PDGF-B Fab fragment P1AE2845 (Fab, V domains shown)
VH: EEQLVESGGGLVQPGGSLRLSCAASGWWFEYTDMSWVRQAPGQGLEWVGSISPSGGSTYYNTNFIGRFTISRDDSKNTLYLQMNSLRDEDTAVYYCARDEGYFDEWGQGTLVTVSS
VL: AIQMTQSPSSLSASVGDRVTITCQASYWLHKYLAWYQQKPGQAPKLLIYDASELEYGVPDRFSGSGSGTDFTLTISSLEPEDFAVYYCQNYRYHPYTFGQGTKLEIKR
notes: DutaFab: one VH/VL pair carries both paratopes; Expressed in E. coli TG1
B1: the Kd in assay [1] was determined as 0.13 nM; in assay [2] it was 0.13 nM; in assay [3], 95 nM; in assay [4], 95 nM. The koff came to 6.54e-05 s⁻¹ in assay [1], 6.54e-05 s⁻¹ in assay [2], 0.0779 s⁻¹ in assay [3] and 0.0779 s⁻¹ in assay [4]. Further, the kon in assay [1] was determined as 503000 M⁻¹ s⁻¹; in assay [2] it was 503000 M⁻¹ s⁻¹; in assay [3] it was 824000 M⁻¹ s⁻¹; in assay [4], 824000 M⁻¹ s⁻¹. The t½ in assay [1] is 177 min; in assay [2] it was 177 min; in assay [3], 0.1 min; in assay [4], 0.1 min.

B2: bispecific anti-VEGF/anti-PDGF-B Fab fragment RO7113083 (Fab, V domains shown)
VH: DLQLVESGGGLVKPGGSLRLSCAADGWWFGYTDMSWVRQAPGKGLEWVGSISYKGGSTYYNTKFIGRFTISRDDDTNTLYLQMNSLRAEDTAVYYCARDDGYFDTWGQGTLVTVSS
VL: AIYMHQEPSSLSASVGDRVTITCHGSYWLSNYLAWYQQKPGKAPKLLIYDGKEREHGVPSRFSGSGSHEDYTLTISSLQPEDFATYYCQQYRYHPYTFGHGTKVEIKR
notes: also called R07113083
Consider B2, for which the Kd came out at 0.7 nM in assay [5]; 0.6 nM in assay [6]; 0.3 nM in assay [7]; 1 nM in assay [4]; 1.3 nM in assay [8]. Moreover, the t½ in assay [5] is 53 min; in assay [6] it was 59 min; in assay [7], 59 min; in assay [4], 90 min; in assay [8], 25 min.

B3: bispecific anti-VEGF/anti-PDGF-B Fab fragment P1AA9124 (Fab, V domains shown)
VH: B2 VH
VL: B2 VL with Y3Q, H5T, E7S, H100Q, V104L
Turning to B3, the Kd was 0.6 nM in assay [5], 0.7 nM in assay [6], 0.4 nM in assay [7] and 1 nM in assay [4]. Moreover, the t½ in assay [5] turned out to be 52 min; in assay [6], 48 min; in assay [7], 48 min; in assay [4], 44 min; in assay [8] it was 24 min.

B4: bispecific anti-VEGF/anti-PDGF-B Fab fragment 28.01 (Fab, V domains shown)
VH: B2 VH
VL: B2 VL with Y3H, H5Y
Consider B4, for which the Kd in assay [5] is 0.6 nM; in assay [6], 0.6 nM; in assay [7] it was 0.3 nM; in assay [8], 1.3 nM. Further, the t½ in assay [5] amounted to 54 min; in assay [6] it was 67 min; in assay [7], 69 min; in assay [8], 26 min.

B5: bispecific anti-VEGF/anti-PDGF-B Fab fragment 28.02 (Fab, V domains shown)
VH: B2 VH with S57H, T58K, Y60L
VL: B2 VL with Y3H, H5Y
In assay [6], B5 yielded a Kd of 0.7 nM, a koff of 0.000218 s⁻¹, a kon of 325000 M⁻¹ s⁻¹ and a t½ of 53 min. For the same molecule, in assay [2], the Kd was determined as 0.007 nM, the koff turned out to be 1.15e-05 s⁻¹, the kon was 1.56e+06 M⁻¹ s⁻¹ and the t½ is 1010 min. In assay [7], the Kd was 0.4 nM, the koff amounted to 0.000215 s⁻¹, the kon came out at 605000 M⁻¹ s⁻¹ and the t½ came to 54 min. In assay [8], this molecule had a Kd of 1.3 nM, a koff of 0.000485 s⁻¹, a kon of 368000 M⁻¹ s⁻¹ and a t½ of 24 min.

B6: bispecific anti-VEGF/anti-PDGF-B Fab fragment 28.07 (Fab, V domains shown)
VH: B2 VH with S57H, T58K, Y60L
VL: B2 VL
As for B6, the Kd in assay [5] is 0.6 nM; in assay [6], 0.7 nM; in assay [2], 0.012 nM; in assay [7], 0.3 nM; in assay [8], 1.4 nM. Further, the koff in assay [5] is 0.000215 s⁻¹; in assay [6], 0.000223 s⁻¹; in assay [2], 1.73e-05 s⁻¹; in assay [7], 0.000225 s⁻¹; in assay [8], 0.000483 s⁻¹. Besides, the kon in assay [5] worked out at 336000 M⁻¹ s⁻¹; in assay [6], 337000 M⁻¹ s⁻¹; in assay [2], 1.4e+06 M⁻¹ s⁻¹; in assay [7] it was 646000 M⁻¹ s⁻¹; in assay [8], 357000 M⁻¹ s⁻¹. Besides, the t½ in assay [5] was 54 min; in assay [6], 52 min; in assay [2] it was 668 min; in assay [7] it was 51 min; in assay [8], 24 min.
